Data published in PMC8395052.

Biological target: T1, human estrogen receptor-alpha (ERα) fused at its N-terminus with NanoLuc luciferase (Nluc-ERα) or HaloTag (HT-ERα) (human), P03372
T1 chain: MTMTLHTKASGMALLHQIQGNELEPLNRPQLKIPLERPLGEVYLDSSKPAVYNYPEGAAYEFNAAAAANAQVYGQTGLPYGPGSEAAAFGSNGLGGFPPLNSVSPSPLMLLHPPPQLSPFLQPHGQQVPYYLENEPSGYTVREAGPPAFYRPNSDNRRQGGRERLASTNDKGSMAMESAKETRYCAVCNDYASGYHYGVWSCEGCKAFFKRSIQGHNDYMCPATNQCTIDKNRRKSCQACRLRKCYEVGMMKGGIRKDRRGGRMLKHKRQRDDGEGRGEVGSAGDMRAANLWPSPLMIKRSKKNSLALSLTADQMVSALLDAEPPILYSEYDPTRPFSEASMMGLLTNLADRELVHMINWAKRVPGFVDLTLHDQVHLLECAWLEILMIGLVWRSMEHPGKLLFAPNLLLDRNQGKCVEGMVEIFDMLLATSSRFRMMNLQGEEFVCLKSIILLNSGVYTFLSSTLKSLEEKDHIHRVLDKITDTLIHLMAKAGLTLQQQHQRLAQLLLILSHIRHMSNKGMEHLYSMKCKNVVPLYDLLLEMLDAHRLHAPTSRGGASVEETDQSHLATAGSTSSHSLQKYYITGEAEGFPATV
Assay: FRET or BRET; NanoBRET in living HEK293 cells co-transfected with Nluc-ERα (donor) and HT-ERα (acceptor), 1:1; HaloTag NanoBRET 618 ligand; cells treated 24 h with E2, 17α-estradiol, diethylhexyl phthalate, bisphenol A or 4-nonylphenol; fold induction of the corrected BRET unit (618 nm/460 nm) over the vehicle control (0.1% DMSO)
Conditions: remark: other sources report otherwise

B1: human estrogen receptor-alpha (ERα) fused at its N-terminus with NanoLuc luciferase (Nluc-ERα) or HaloTag (HT-ERα), P03372 1-595 (receptor)
chain: T1 chain
modifications: here or on the partner: HaloTag NanoBRET 618 ligand on the HaloTag of the acceptor copy; HaloTag NanoBRET 618 ligand on the HaloTag of the acceptor copy
B1 gave a fold induction of the BRET signal over vehicle control, with 4-nonylphenol of 2.3 fold, a fold induction of the BRET signal over vehicle control, with 17α-estradiol 10^-8 M of 2.7 fold and a fold induction of the BRET signal over vehicle control, with E2 10^-9 M of 2.7 fold. The fold induction of the BRET signal over vehicle control, with bisphenol A 10^-5 M was 5.7 fold and the fold induction of the BRET signal over vehicle control, with diethylhexyl phthalate was 2.3 fold.
